Measurements from publication PMC7943578.

Legend:
[1] = target: CC-Type2-(LaIdGe)4; experiment: AUC; sedimentation equilibrium, 70 uM peptide, 20 C, PBS pH 7.4, single species model; self-association of the peptide
[2] = target: CC-Type2-(LaIdGe)4; experiment: AUC; sedimentation velocity with 25% v/v isopropanol, 150 uM peptide, PBS pH 7.4
[3] = target: CC-Type2-(LaIdGe)4; experiment: AUC; sedimentation velocity with DPH, absorbance of DPH at 350 nm; 200 uM peptide, 5 uM DPH, 5% v/v DMSO in PBS pH 7.4, 25 C
[4] = target: CC-Type2-(LaIdGe)4; experiment: AUC; sedimentation equilibrium with 15% v/v isopropanol, 70 uM peptide, PBS pH 7.4, 30-45 krpm, single ideal species fit
[5] = target: CC-Type2-(LaIdGe)4; experiment: AUC; sedimentation velocity, 150 uM peptide, 20 C, 50 krpm, PBS pH 7.4; self-association of the peptide
[6] = target: CC-Type2-(LaIdGe)4; experiment: SEC; Superdex75 10/300 GL, 25% v/v IPA in PBS, samples loaded at 150 uM, monitored at 220 nm
[7] = target: CC-Type2-(LaIdGe)4-W19BrPhe; experiment: crystal structure; vapour diffusion at 19 C; 0.05 M sodium HEPES, 5% w/v PEG 4000, 5% v/v 2-propanol, pH 7; SAD phasing on bromine

Substance | stoichiometry N [1] | stoichiometry N (x monomer mass) [2] | stoichiometry N (x monomer mass) [3] | stoichiometry N (x monomer mass) [4] | stoichiometry N [5] | stoichiometry N [6] | stoichiometry N [7]
CC-Type2-(LaIdGe)4 (peptide) | 6 | 5.5 | 6.2 | 5.7 | 6 | 6 | –
CC-Type2-(LaIdGe)4-W19BrPhe (peptide) | – | – | – | – | – | – | 6
